Measurements published in US20060257938A1, “Method of screening for drugs that block ligand binding to a lipid binding protein” (priority 2005, published 2006).

Experiments:
Assay type in all cases: binding
[1] = Probe fluorescence ratio response to palmitic acid relative to ADIFAB2; details: response relative to ADIFAB2
Procedure, shortened: (§1)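 Each fatty acid's response was expressed relative to ADIFAB2, the rI-FABP-L72A probe, as ΔR/ΔRreference. ΔR is the change in the background-corrected two-wavelength intensity ratio R=Fλ1/Fλ2 from its analyte-free baseline R0. Emission was read near about 420-480 nm for unbound and about 495-580 nm for FFA-bound probe.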

[2] = Probe fluorescence ratio response to oleic acid relative to ADIFAB2; details: response relative to ADIFAB2
Procedure, shortened: as §1

[3] = Probe fluorescence ratio response to arachidonic acid relative to ADIFAB2; details: arachidonic acid; response relative to ADIFAB2
Procedure, shortened: as §1

[4] = Probe fluorescence ratio response to linolenic acid relative to ADIFAB2; details: response relative to ADIFAB2
Procedure, shortened: as §1

[5] = Probe fluorescence ratio response to linoleic acid relative to ADIFAB2; details: response relative to ADIFAB2
Procedure, shortened: as §1

Molecule	DR/DR PA [1]	DR/DR OA [2]	DR/DR AA [3]	DR/DR LNA [4]	DR/DR LA [5]
62P, 72A (protein, listed as Rattus norvegicus, PEPTIDE (1)...(131) wild-type rat intestinal fatty acid binding protein) AFDGTWKVDRNENYEKFMEKMGINVVKRKLGAHDNLKLTITQEGNKFTVKESSNFRNIDVVPELGVDFAYSAADGTELTGTWTMEGNKLVGKFKRVDNGKELIAVREISGNELIQTYTYEGVEAKRIFKKE	1.247	1.448	1.548	1.581	1.572
104N, 72A (protein, listed as Rattus norvegicus, PEPTIDE (1)...(131) wild-type rat intestinal fatty acid binding protein) AFDGTWKVDRNENYEKFMEKMGINVVKRKLGAHDNLKLTITQEGNKFTVKESSNFRNIDVVFELGVDFAYSAADGTELTGTWTMEGNKLVGKFKRVDNGKELINVREISGNELIQTYTYEGVEAKRIFKKE	0.406	0.408	1.018	0.391	0.385
31V, 72A (protein, listed as Rattus norvegicus, PEPTIDE (1)...(131) wild-type rat intestinal fatty acid binding protein) AFDGTWKVDRNENYEKFMEKMGINVVKRKLVAHDNLKLTITQEGNKFTVKESSNFRNIDVVFELGVDFAYSAADGTELTGTWTMEGNKLVGKFKRVDNGKELIAVREISGNELIQTYTYEGVEAKRIFKKE	0.206	0.081	0.395	0.776	0.384
31I, 72A (protein, listed as Rattus norvegicus, PEPTIDE (1)...(131) wild-type rat intestinal fatty acid binding protein) AFDGTWKVDRNENYEKFMEKMGINVVKRKLIAHDNLKLTITQEGNKFTVKESSNFRNIDVVFELGVDFAYSAADGTELTGTWTMEGNKLVGKFKRVDNGKELIAVREISGNELIQTYTYEGVEAKRIFKKE	0.091	−0.213	0.303	0.413	0.168
31R, 72A (protein, listed as Rattus norvegicus, PEPTIDE (1)...(131) wild-type rat intestinal fatty acid binding protein) AFDGTWKVDRNENYEKFMEKMGINVVKRKLRAHDNLKLTITQEGNKFTVKESSNFRNIDVVFELGVDFAYSAADGTELTGTWTMEGNKLVGKFKRVDNGKELIAVREISGNELIQTYTYEGVEAKRIFKKE	0.342	0.227	0.250	0.437	0.405
14W 72M 117A (protein, listed as Rattus norvegicus, PEPTIDE (1)...(131) wild-type rat intestinal fatty acid binding protein) AFDGTWKVDRNENWEKFMEKMGINVVKRKLGAHDNLKLTITQEGNKFTVKESSNFRNIDVVFELGVDFAYSMADGTELTGTWTMEGNKLVGKFKRVDNGKELIAVREISGNELIQTATYEGVEAKRIFKKE	0.515	0.706	0.945	1.286	1.009
23W, 72A (protein, listed as Rattus norvegicus, PEPTIDE (1)...(131) wild-type rat intestinal fatty acid binding protein) AFDGTWKVDRNENYEKFMEKMGWNVVKRKLGAHDNLKLTITQEGNKFTVKESSNFRNIDVVFELGVDFAYSAADGTELTGTWTMEGNKLVGKFKRVDNGKELIAVREISGNELIQTYTYEGVEAKRIFKKE	0.492	0.448	0.618	0.956	0.794
36V, 72A (protein, listed as Rattus norvegicus, PEPTIDE (1)...(131) wild-type rat intestinal fatty acid binding protein) AFDGTWKVDRNENYEKFMEKMGINVVKRKLGAHDNVKLTITQEGNKFTVKESSNFRNIDVVFELGVDFAYSAADGTELTGTWTMEGNKLVGKFKRVDNGKELIAVREISGNELIQTYTYEGVEAKRIFKKE	0.713	0.869	1.026	1.082	1.062
38S, 72A (protein, listed as Rattus norvegicus, PEPTIDE (1)...(131) wild-type rat intestinal fatty acid binding protein) AFDGTWKVDRNENYEKFMEKMGINVVKRKLGAHDNLKSTITQEGNKFTVKESSNFRNIDVVFELGVDFAYSAADGTELTGTWTMEGNKLVGKFKRVDNGKELIAVREISGNELIQTYTYEGVEAKRIFKKE	0.724	1.235	1.175	1.295	1.286
31Q, 72A (protein, listed as Rattus norvegicus, PEPTIDE (1)...(131) wild-type rat intestinal fatty acid binding protein) AFDGTWKVDRNENYEKFMEKMGINVVKRKLQAHDNLKLTITQEGNKFTVKESSNFRNIDVVFELGVDFAYSAADGTELTGTWTMEGNKLVGKFKRVDNGKELIAVREISGNELIQTYTYEGVEAKRIFKKE	1.039	1.313	1.024	1.494	1.465
36I, 72A (protein, listed as Rattus norvegicus, PEPTIDE (1)...(131) wild-type rat intestinal fatty acid binding protein) AFDGTWKVDRNENYEKFMEKMGINVVKRKLGAHDNIKLTITQEGNKFTVKESSNFRNIDVVFELGVDFAYSAADGTELTGTWTMEGNKLVGKFKRVDNGKELIAVREISGNELIQTYTYEGVEAKRIFKKE	0.815	0.773	0.812	1.004	0.884
